Reference: patent publication US20060193821

Tests used:
[1] = target: T1, IL-23 (human, p19/p40 heterodimer) (Homo sapiens) (UniProt Q9NPF7+P29460); test: filter; details: 2'-F C,U; SHMCK, tRNA
[2] = target: T1, IL-23 (human, p19/p40 heterodimer) (Homo sapiens); test: cell_activity; details: 2'-F C and U, 2'-OH A and G; TransAM STAT3, PHA blasts

T1 sequence (Q9NPF7 20-189, chain 1 of 2): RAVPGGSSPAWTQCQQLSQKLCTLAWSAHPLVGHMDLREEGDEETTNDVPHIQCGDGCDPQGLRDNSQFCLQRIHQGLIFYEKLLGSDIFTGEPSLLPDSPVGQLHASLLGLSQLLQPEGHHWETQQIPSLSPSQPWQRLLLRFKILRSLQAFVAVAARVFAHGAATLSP
T1 sequence (P29460 23-328, chain 2 of 2): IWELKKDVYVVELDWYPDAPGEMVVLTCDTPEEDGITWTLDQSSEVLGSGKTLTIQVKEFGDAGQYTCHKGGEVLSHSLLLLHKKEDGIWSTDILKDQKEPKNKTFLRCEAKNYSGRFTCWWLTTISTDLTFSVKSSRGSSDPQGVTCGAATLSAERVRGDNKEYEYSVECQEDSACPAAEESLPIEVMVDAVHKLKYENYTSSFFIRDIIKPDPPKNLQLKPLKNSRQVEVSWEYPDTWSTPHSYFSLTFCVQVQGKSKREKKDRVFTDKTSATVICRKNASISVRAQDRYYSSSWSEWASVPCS

Question: “AGGGAAAAGGAAUCAUACACAAGAUGUAUCAUCCGGUCGUACAAAAGCGCCACGGAACCAUUCGCUCCGCCAGANACCAACCGAGAA [ARX33-plate1-H01]” was tested. Which Kd [1] did it give?
Answer: 0.0778 µM

Question: And the IC50 [2]?
Answer: > 5 µM
